Measured values reported in PMC12594620, “The Role of the [2Fe‐2S] Cluster of Escherichia coli IscR in Responding to Redox‐Cycling Agents”.

Columns and labels:
[1] = biological target: T1, [2Fe-2S]-IscR (wild type, anaerobically isolated) (Escherichia coli K12, UniProt P0AGK8 1-162); assay: fluorescence anisotropy; [2Fe-2S]1+ cluster, anaerobic, no PMS; apparent Kd; Anisotropy: 40 mM Tris-Cl pH 7.9, 30 mM KCl, 5% glycerol, anaerobic unless stated, temperature not stated for the binding step; EMSA: 40 mM Tris-Cl pH 7.9, 150; settings: protein: recombinant; chain copies: 2; label: 5' Texas Red on strand 1; blunt
T1 sequence: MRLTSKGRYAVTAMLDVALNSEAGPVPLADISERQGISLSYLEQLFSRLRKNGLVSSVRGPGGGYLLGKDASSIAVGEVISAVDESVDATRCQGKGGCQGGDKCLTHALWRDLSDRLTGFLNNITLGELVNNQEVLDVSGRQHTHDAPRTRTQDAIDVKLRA

[2] = biological target: T1, [2Fe-2S]-IscR (wild type, anaerobically …); assay: fluorescence anisotropy; air 15 min, then returned to anaerobic chamber and assayed anaerobically; Anisotropy: 40 mM Tris-Cl pH 7.9, 30 mM KCl, 5% glycerol, anaerobic unless stated, temperature not stated for the binding step; EMSA: 40 mM Tris-Cl pH 7.9, 150; settings: protein: recombinant; chain copies: 2; label: 5' Texas Red on strand 1; blunt

B1: iscRB type 1 site 30 bp (dsDNA)
DNA 1: AAATAGTTGACCATTTTACTCGGGAATGTC
DNA 2: GACATTCCCGAGTAAAATGGTCAACTATTT
[1]
  Kd: 22 nM
[2]
  Kd: 26 nM
